The labels stand for the following.
B1: 417A6F11 (antibody, V domains shown)
VH: EVQLQQSGPELVKPGASMKISCKASGYSFTGYTMNWVKQSHGKNLEWIGLINPYNGGTSYNQKFKGKATLTVDKSSSTAYMELLSLTSEDSAVYYCARGDYWGQGTTLTVSS
VL: DIVMTQSPSSLTVTAGEKVTMSCKSSQSLLNSGNQKNYLTWYQQKPGQPPKLLIYWASTRESGVPDRFTGSGSGTDFTLTISSVQAEDLAVYYCQNDYSYPTFGAGTKLELK
B2: 413B1C9 (antibody, V domains shown)
VH: DVQLVESGGGLVQPGGSRKLSCAASGFTFSSFGMHWVRQAPEKGLEWVAYISSGSSPIYYADTVKGRFTISRDNPKNTLFLQMTSLRSEDTAMYFCARFYYGNSFDHWGQGTLVTVSA
VL: DIVMTQSPSSLTVTTGEKVSMSCKSSQSLFNRGNQKSYLTWYQQKPGQPPKLLIYWASTRESGVPDRFTGSGSGTDFTLTISSVQAEDLAVYYCQNNYIYPLTFGAGTKLELK
B3: 419A10D4 (antibody, V domains shown)
VH: DVQLVESGGGLVQPGGSRKLSCAASGFTFSGFGMHWIRQTPEKGLEWVAYISSGSRPIYYADTVKGRFTISRDNPKNTLFLQMTSLRSEDTAMYFCARFYYGNSFDHWGQGTLVTVSA
VL: DIVMTQSPSFLTVTAGEKVTMSCKSSQSLLNSGNQRNYLTWYQQKPGQPPKLLIYWASTRESGVPDRFTGSGSGTDFTLTVSSVQAEDLALYYCQNAYSFPLTFGAGTKLELK
B4: 418D2F9 (antibody, V domains shown)
VH: DVQLVESGGGLVQPGGSRKLSCAASGFTFSSFGMHWVRQAPEKGLEWVAYINTGSSTIYYADTVKGRFTISRDNPKNTLFLQMTSLRSEDTAMYYCARIYYGNSFVYWGQGTLVTVSA
VL: DIVMTQSPSSLTVTAGEKVTMSCKSSQSLLNSGNQKNYLTWYQQKPGQPPKLLIYWASTRESGVPDRFTGSGSGTDFTLTISSVQAEDLAVYYCQNDYSYPLTFGAGTKLELK
B5: 419A5F3 (antibody, V domains shown)
VH: DVQLVESGGGLVQPGGSRKLSCAASGFTFSGFGMHWIRQTPEKGLEWVAYISSDSRPIYYADTVKGRFTISRDNPKNTLFLQMTSLRSEDTAMYFCGRFYYGNSFDHWGQGTLVTVSA
VL: DIVMTQSPSFLTVTAGEKVTLSCRSSQSLLNSGNQRNYLTWYQQKPGQPPKLLIYWASTRESGVPDRFTGSGSGTDFTLTISSVQAEDRALYYCQNAYSFPLTFGTGTKLELR
B6: 203A6D5 (antibody, V domains shown)
VH: QVQLKQSGPGLVQPSQSLSITCTVSGFSLTRYGVHWVRQSPGKGLEWLGVIWSGGNTDYNAAFISRLNIRKDNSKSQVFFKMNSLKPNDTAIYYCARAAYFGNSFDYWGQGTTLTVSS
VL: DIVMTQSPSSLPVTAGEKVTMSCKSSQSLLNSGNQKNYLTWYQQKPGQPPKLLIYWASTRDSGVPDRFTGSGSGTDFTLTISSVQAEDLAVYYCQNNYIYPLTFGAGTKLELK
B7: 416F12F3 (antibody, V domains shown)
VH: DVQLVESGGGLVQPGGSRKLSCAASGFTFSSFGMHWVRQAPEKGLEWVAYISSGSSTIYYAHSVKGRFTISRDNPKNTLFLQMTSLGSEDTAMYYCARFYYGNSFAYWGQGTLVTVSA
VL: DIVMTQSPSSLTVTAGEKVTLSCKSSQSLLNSGNQKNYLTWYQQKPGQPPKMLIYWASTRESGVPDRFTGSGSGTDFTLTISSVQAEDLAVYYCQNAYTYPLTFGAGTRLELK
B8: 419B5G9 (antibody, V domains shown)
VH: DVQLVESGGGLVQPGGSRKLSCAASGFTFSTFGMHWVRQAPEKGLEWVAYISGGSTTIFYADTVKGRFTISRDNPKNTLFLQMTSVRSEDTAMYYCARFYYGNSFAYWGPGTLVTVST
VL: DIVMTQSPSSLTVTAGEKVTMSCKSSQSLLNSGNQKNYLTWYQQKPGQPPKMLIYWASTRESGVPDRFTGSGSGTDFTLTISSVQAEDLAVYYCQNAYSYPLTFGAGTKLELK
B9: 414H6G2 (antibody, V domains shown)
VH: DVQLVESGGGLVQPGGSRKLSCAASGFTFSGFGMHWIRQTAEKGLEWVAYISSGSRPIYYADTVQGRFTISRDNPKNTLFLQMTSLRSEDTAMYFCARFYYGNSFDHWGQGTLVTVSA
VL: DIVMTQSPSFLTVTAGEKVTMSCKSSQSLLNSGNQKNYLTWYQQKPGQPPKLLIYWASTRESGVPDRFTGSGSGTDFTLTISSVQAEDLALYYCQNAYSFPLTFGAGTKLELK
B10: 420H3H9 (antibody, V domains shown)
VH: DVQLVESGGGLVQPGGSRKLSCAASGFTFSSFGMHWVRQAPEKGLEWVAYISSGSSTIYYAHSVKGRFTISRDNPKNTLFLQMTSLGSEDTAMYYCARFYYGNSFAYWGQGTLVTVSA
VL: DIVMTQSPSSLTVTAGEKVTLSCKSSQSLLNSGNQKNYLTWYQQKPGQPPKMLIYWASTRESGVPDRFTGSGSGTDFTLTISSVQAEDLADYYCQNAYTYPLTFGAGTRLELK
B11: 418G6A5 (antibody, V domains shown)
VH: DVQLVESGGGLVQPGGSRKLSCVASGFTFSSFGMHWVRQAPEKGLEWVAYISSGSSPMYYADTVKGRFTISRDNPKNTLFLQMTSLRSEDTAMYFCARIYYGNSFAYWGQGTLVTVSA
VL: DIVMTQSPSSLTVTAGEKVTMSCKSSQSLLNSGNQKNYLTWYQQKPGQPPKLLIYWASTRESGVPDRFTGSGSGTDFTLTISSVQAEDLAVYYCQNAYSYPLTFGAGTKLELK
B12: 413C12F8 (antibody, V domains shown)
VH: DVQLVESGGGLVQPGGSRKLSCAASGFTFSGFGVHWIRQTPEKGLEWVAYIGSGSRPIYYADTVKGRFTISRDNPKNTLFLQMTSLRSEDTAMYFCARFYYGNSFDHWGQGTLVTVSA
VL: DIVMTQSPSFLTVTAGEKVTMNCRSSQSLLNSGNQKNYLTWYQQRPGQPPKLLIYWASTRESGVPDRFTGSGSGTDFTLTISSVQAEDLALYYCQNAYSFPLTFGAGTKLELK
B13: 420D5H5 (antibody, V domains shown)
VH: DVQLVESGGGLVQPGGSRKLSCAASGFTLSGFGMHWIRQTPEKGLEWVAYISSGSRPIYYVDTVEGRFTISRDNPKNTLFLQMTSLRSEDTAMYFCARFYYGNSFDHWGQGTLVTVSS
VL: DIVMTQSPSFLTVTAGEKVTMSCKSSQSLLNSGNQKNYLTWYQQKPGQPPKLLIYWASTRESGVPDRFTGSGSGTDFTLTIRGVQAEDLALYYCQNAYSFPLTFGAGTKLELK
B14: 420G10G3 (antibody, V domains shown)
VH: DVQLVESGGGLVQPGGSRKLSCAASGFTFSGFGMHWIRQTAEKGLEWVAYISSGSRPIYYADTVQGRFTISRDNPKNTLFLQMTSLRSEDTAMYFCARFYYGNSFDHWGQGTLVTVSA
VL: DIVMTQSPSFLTVTAGEKVTMSCKSSQSLLNSGNQKNYLTWYQQKPGQPPKLLIYWASTRESGVPDRFTGSGSGTDFTLTISSVQAEDLALYYCQNAYSFPLTFGAGTKLELK
B15: 414A5F7 (antibody, V domains shown)
VH: DVQLVESGGGLVQPGGSRKLSCAASGFTFSSFGMHWVRQAPEKGLEWVAYISSGSSPIYYADTVKGRFTISRDNPKNTLFLQMTSLRSEDTAMYFCARIYYGNSFAYWGQGTLVTVSA
VL: DIVMTQSPSSLTVTAGEKVAMSCKSSQTLLNSGNQKNYLTWYQQKPGQPPKLLLYWASTRESGVPDRFTGSGSGTDFTLTISSVQAEDLAVYYCQNAYYYPLTFGSGTKLELK
B16: 418B8B10 (antibody, V domains shown)
VH: DVQLVESGGGLVQPGGSRKLSCAASGFTFSSFGMHWVRQAPEKGLEWVAYISSGSSPIYYTDTVKGRFTISRDNPKNTLFLQMTSLRSEDTAMYFCARFYYGNSFDHWGQGTLVTVSA
VL: DIVMTQSPSSLTVTAGEKVSMSCKSSQSLFNRGNQKSYLTWYQQRPGQPPKLLIYWASTRESGVPDRFTGSGSGTDFTLTISSVQAEDLAVYYCQNNYIYPLTFGAGTKLELK
B17: 420F12G8 (antibody, V domains shown)
VH: DVQLVESGGGLVQPGGSRKLSCAASGFAFSGFGMHWIRQTPEKGLEWVAYISSGSRPIYYADTVKGRFTISRDNPKNTLFLQMTSLRSEDTAMYFCVRFYYGNSFDHWGQGTLVTVSA
VL: DIVMTQSPSFLTVTAGEKVTMTCRSSQNLLNSGNQKNYLTWYQQKPGQPPKLLISWASTRESGVPDRFTGSGSGTDFTLTISSVQPEDLALYYCQNAYSFPFTFGAGTKLELK
B18: 203A6C9 (antibody, V domains shown)
VH: QVQLKQSGPGLVQPSQSLSITCTVSGFSLTRYGVHWVRQSPGKGLEWLGVIWSGGNTDYNAAFISRLNIRKDNSKSQVFFKMNSLKPNDTAIYYCARAAYFGNSFDYWGQGTTLTVSS
VL: DIVMTQSPSSLPVTAGEKVTMSCKSSQSLLNSGNQKNYLTWYQQKPGQPPKLLIYWASTRDSGVPDRFTGSGSGTDFTLTISSVQAEDLAVYYCQNNYIYPLTFGAGTKLELK
B19: 420H7E6 (antibody, V domains shown)
VH: DVQLVESGGGLVQPGGSRKLSCVTSGFTFSSFGMHWIRQAPEKGLEWVAFISGGGSPIFYADSVKGRFTVSRDNPKNTLFLQMTGLRSEDTAMYFCARFYFGNSFAYWGQGTLVTVSA
VL: DIVMAQSPSSLTVTAGEKVTMNCRSSQSLFNSGNQKNYLTWYQQKPGQPPKLLIYWASTRESGVPVRFTGSGSGTDFTLTISSVQAEDLAVYYCQTGFSYPLTFGPGTKLELK

For the assay, the target named is human Claudin18.2 (human). The assay is described as follows: cell-based or functional assay.
For B1, the “CDC % Relative activity” value is 440% and the “CDC EC50” value stood at 0.392 µg/mL.

As to B2, the “CDC % Relative activity” value was 10.4% and the “CDC EC50” value amounted to 26.3 µg/mL.

In the case of B3, the “CDC % Relative activity” value worked out at 91.5% and the “CDC EC50” value was found to be 1.88 µg/mL.

As for B4, the “CDC % Relative activity” value came to 236% and the “CDC EC50” value was 0.73 µg/mL.

B5: the “CDC % Relative activity” value came out at 61.7% and the “CDC EC50” value was 2.79 µg/mL.

Turning to B6, the “CDC % Relative activity” value worked out at 571% and the “CDC EC50” value was found to be 0.336 µg/mL.

As for B7, the “CDC % Relative activity” value is 220% and the “CDC EC50” value came to 0.784 µg/mL.

In the case of B8, the “CDC % Relative activity” value was found to be 349% and the “CDC EC50” value stood at 0.494 µg/mL.

Regarding B9, the “CDC % Relative activity” value is 678% and the “CDC EC50” value is 0.402 µg/mL.

Consider B10, for which the “CDC % Relative activity” value amounted to 458% and the “CDC EC50” value was determined as 0.416 µg/mL.

In the case of B11, the “CDC % Relative activity” value was 207% and the “CDC EC50” value stood at 0.83 µg/mL.

In the case of B12, the “CDC % Relative activity” value was determined as 70.9% and the “CDC EC50” value came out at 3.84 µg/mL.

As to B13, the “CDC % Relative activity” value worked out at 78.3% and the “CDC EC50” value was 2.2 µg/mL.

Turning to B14, the “CDC % Relative activity” value was 72.4% and the “CDC EC50” value stood at 2.63 µg/mL.

Consider B15, for which the “CDC % Relative activity” value came out at 594% and the “CDC EC50” value was found to be 0.458 µg/mL.

With B16, the “CDC % Relative activity” value worked out at 30.8% and the “CDC EC50” value was determined as 5.6 µg/mL.

For B17, the “CDC % Relative activity” value was determined as 52.6% and the “CDC EC50” value was 3.27 µg/mL.

For the molecule B18, the “CDC % Relative activity” value stood at 600% and the “CDC EC50” value was determined as 0.319 µg/mL.

Regarding B19, the “CDC % Relative activity” value is 48.8% and the “CDC EC50” value was 3.9 µg/mL.

(Values after patent US20220073643A1 (NANJING GENSCRIPT BIOTECH, published 2022).)
